Laboratory results as given in patent publication US20100166722A1.

Columns and labels:
[1] = target: biotinylated cognate NY-ESO peptide-HLA-A*0201 complex; assay: SPR (Biacore 3000), soluble TCR over immobilised biotinylated pMHC
[2] = target: cognate NY-ESO peptide-MHC presented on peptide-pulsed APCs; assay: cell-based or functional assay

Row | Half-live (T½) [1] | IFN-γ release ELISA, CD4+ T cells; peptide pulsing level needed for a significant response [2] | Substance
1 | 2.2 s | – | soluble disulfide-linked wild-type 1G4 NY-ESO TCR
2 | – | > 10 nM | full-length wild-type 1G4 NY-ESO TCR expressed on transfected T cells
